This note sets out measurements from patent US20130344089A1.

In test [1] the target is Aβ42 A21C/A30C (Aβ42-CC) monomers (UniProt P05067). The experiment in a line: direct ELISA, Aβ42-CC monomers coated at pH 7.4. On the technique in general: ELISA stands for enzyme-linked immunosorbent assay.
For test [2] the target is unchanged. As to the kind of experiment: direct ELISA, Aβ42-CC monomers coated at pH 10.4 with 10 mM TCEP (reduced form).
Test [3] shares this target. As to the kind of experiment: direct ELISA, Aβ42-CC monomers coated at pH 10.4.

In the case of “monoclonal antibody 6E10 (Covance Research Products)”, the figures for the total Ig titer (log10) in test [1], in test [2] and in test [3] were 2.1 log10 titer, 2.1 log10 titer and 2 log10 titer, respectively.
